Data as given in paper PMC9352680, “A comprehensive thermodynamic model for RNA binding by the Saccharomyces cerevisiae Pumilio protein PUF4”.

T1: PUF4 RNA-binding domain (Saccharomyces cerevisiae, UniProt P25339 537-888)
T1 sequence: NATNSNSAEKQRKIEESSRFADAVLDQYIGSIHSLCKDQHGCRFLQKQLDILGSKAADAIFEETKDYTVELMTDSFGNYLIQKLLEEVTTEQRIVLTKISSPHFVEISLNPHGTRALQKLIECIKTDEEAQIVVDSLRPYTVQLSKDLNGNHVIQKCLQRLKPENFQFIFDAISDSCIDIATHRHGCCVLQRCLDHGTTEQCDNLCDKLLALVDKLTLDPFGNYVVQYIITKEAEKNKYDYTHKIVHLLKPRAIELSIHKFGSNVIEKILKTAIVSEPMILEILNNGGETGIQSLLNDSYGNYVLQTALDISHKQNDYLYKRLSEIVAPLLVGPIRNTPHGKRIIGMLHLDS


The binders below were run against T1, PUF4 RNA-binding domain (assay: Mg; RNA-MaP; 20 mM Na-HEPES pH 7.4, 30 mM KOAc, 0.75 mM MgCl2, 0.1% Tween-20, 5% glycerol, 0.1 mg/mL BSA, 2 mM DTT; 25 C; 0.0125-409.6 nM protein). Details: tags: N-His6-TEV cleaved; C-SNAP kept, Cy3B-labelled; label: tethered on chip by stalled RNA polymerase.

| Binder | Kd |
| --- | --- |
| UCUCUUUGUAGUUCUUCUCUU (ssRNA) [Ic_S1_P4E.1_K4.1_C4.1_H4.1_A4.1_[T5G]_[A6T]_F4.1_[T8C]_[A9T]_T4.1] | 0.798 µM |
| UCUCUUUGUAAAUAUCUCUU (ssRNA) [Ic_S1_P3E.1_K3.1_C3.1_H3.1_A3.1_[T5A]_F3.1_T3.1] | 0.028 µM |
| UCUCUUUGUAGCGUUUCUCUU (ssRNA) [Ic_S1_P4E.1_K4.1_C4.1_H4.1_A4.1_[T5G]_[A6C]_[T7G]_F4.1_[A9T]_T4.1] | 0.964 µM |
| UCUCUUUGUAGCUUUUCUCUU (ssRNA) [Ic_S1_P4E.1_K4.1_C4.1_H4.1_A4.1_[T5G]_[A6C]_F4.1_[A9T]_T4.1] | 0.361 µM |
| UCUCUUUGUAGUUAUUCUCUU (ssRNA) [Ic_S1_P4E.1_K4.1_C4.1_H4.1_A4.1_[T5G]_[A6T]_F4.1_[T8A]_[A9T]_T4.1] | 0.685 µM |
| UCUCUUUGUAGUAUCUCUCUU (ssRNA) [Ic_S1_P4E.1_K4.1_C4.1_H4.1_A4.1_[T5G]_[A6T]_[T7A]_F4.1_[A9C]_T4.1] | 0.59 µM |
| UCUCUUUGUAGCAACUCUCUU (ssRNA) [Ic_S1_P4E.1_K4.1_C4.1_H4.1_A4.1_[T5G]_[A6C]_[T7A]_F4.1_[T8A]_[A9C]_T4.1] | 1.21 µM |
| UCUCUUUGUAGUAACUCUCUU (ssRNA) [Ic_S1_P4E.1_K4.1_C4.1_H4.1_A4.1_[T5G]_[A6T]_[T7A]_F4.1_[T8A]_[A9C]_T4.1] | > 2.3 µM |
| UCUCUUUGUAGUGUUUCUCUU (ssRNA) [Ic_S1_P4E.1_K4.1_C4.1_H4.1_A4.1_[T5G]_[A6T]_[T7G]_F4.1_[A9T]_T4.1] | 0.736 µM |
| UCUCUUUGUAGCUUGUCUCUU (ssRNA) [Ic_S1_P4E.1_K4.1_C4.1_H4.1_A4.1_[T5G]_[A6C]_F4.1_[A9G]_T4.1] | 1.59 µM |
| UCUCUUUGUAGUUUGUCUCUU (ssRNA) [Ic_S1_P4E.1_K4.1_C4.1_H4.1_A4.1_[T5G]_[A6T]_F4.1_[A9G]_T4.1] | 0.287 µM |
| UCUCUUUGUAGUGUAUCUCUU (ssRNA) [Ic_S1_P4E.1_K4.1_C4.1_H4.1_A4.1_[T5G]_[A6T]_[T7G]_F4.1_T4.1] | 0.0523 µM |
| UCUCUUUGUAUAAGUCUCUU (ssRNA) [Ib_S1_P3E.1_K3.1_C3.1_H3.1_A3.1_F3.1_[T7A]_[A8G]_T3.1] | 0.502 µM |
| UCUCUUUGUAGUUACUCUCUU (ssRNA) [Ic_S1_P4E.1_K4.1_C4.1_H4.1_A4.1_[T5G]_[A6T]_F4.1_[T8A]_[A9C]_T4.1] | 0.982 µM |
| UCUCUUUGUAGUCAUUCUCUU (ssRNA) [Ic_S1_P4E.1_K4.1_C4.1_H4.1_A4.1_[T5G]_[A6T]_[T7C]_F4.1_[T8A]_[A9T]_T4.1] | 0.971 µM |
| UCUCUUUGUAGUUGUUCUCUU (ssRNA) [Ic_S1_P4E.1_K4.1_C4.1_H4.1_A4.1_[T5G]_[A6T]_F4.1_[T8G]_[A9T]_T4.1] | 0.802 µM |
| UCUCUUUGUAGUCACUCUCUU (ssRNA) [Ic_S1_P4E.1_K4.1_C4.1_H4.1_A4.1_[T5G]_[A6T]_[T7C]_F4.1_[T8A]_[A9C]_T4.1] | 1.77 µM |

| Binder | Kd |
| --- | --- |
| UCUCUUUGUAUACUUCUCUU (ssRNA) [Ic_S1_P3E.1_K3.1_C3.1_H3.1_A3.1_F3.1_[T7C]_[A8T]_T3.1] | 0.00559 µM |
| UCUCUUUGUAGUGCUUCUCUU (ssRNA) [Ic_S1_P4E.1_K4.1_C4.1_H4.1_A4.1_[T5G]_[A6T]_[T7G]_F4.1_[T8C]_[A9T]_T4.1] | > 2.3 µM |
| UCUCUUUGUAGUCGGUCUCUU (ssRNA) [Ic_S1_P4E.1_K4.1_C4.1_H4.1_A4.1_[T5G]_[A6T]_[T7C]_F4.1_[T8G]_[A9G]_T4.1] | > 2.3 µM |
| UCUCUUUGUAGUCUGUCUCUU (ssRNA) [Ic_S1_P4E.1_K4.1_C4.1_H4.1_A4.1_[T5G]_[A6T]_[T7C]_F4.1_[A9G]_T4.1] | 0.406 µM |
| UCUCUUUGUAGUUCGUCUCUU (ssRNA) [Ic_S1_P4E.1_K4.1_C4.1_H4.1_A4.1_[T5G]_[A6T]_F4.1_[T8C]_[A9G]_T4.1] | > 2.3 µM |
| UCUCUUUGUAUAAUUCUCUU (ssRNA) [Ib_S1_P3E.1_K3.1_C3.1_H3.1_A3.1_F3.1_[T7A]_[A8T]_T3.1] | 0.00997 µM |
| UCUCUUUGUAGUCUAUCUCUU (ssRNA) [Ic_S1_P4E.1_K4.1_C4.1_H4.1_A4.1_[T5G]_[A6T]_[T7C]_F4.1_T4.1] | 0.0211 µM |
| UCUCUUUGUAUACGUCUCUU (ssRNA) [Ic_S1_P3E.1_K3.1_C3.1_H3.1_A3.1_F3.1_[T7C]_[A8G]_T3.1] | 0.082 µM |
| UCUCUUUGUAGUGCCUCUCUU (ssRNA) [Ic_S1_P4E.1_K4.1_C4.1_H4.1_A4.1_[T5G]_[A6T]_[T7G]_F4.1_[T8C]_[A9C]_T4.1] | > 2.3 µM |
| UCUCUUUGUAGCACGUCUCUU (ssRNA) [Ic_S1_P4E.1_K4.1_C4.1_H4.1_A4.1_[T5G]_[A6C]_[T7A]_F4.1_[T8C]_[A9G]_T4.1] | > 2.3 µM |
| UCUCUUUGUAGUAUAUCUCUU (ssRNA) [Ic_S1_P4E.1_K4.1_C4.1_H4.1_A4.1_[T5G]_[A6T]_[T7A]_F4.1_T4.1] | 0.0112 µM |
| UCUCUUUGUAGUCGUUCUCUU (ssRNA) [Ic_S1_P4E.1_K4.1_C4.1_H4.1_A4.1_[T5G]_[A6T]_[T7C]_F4.1_[T8G]_[A9T]_T4.1] | 1.6 µM |
| UCUCUUUGUAGUGUGUCUCUU (ssRNA) [Ic_S1_P4E.1_K4.1_C4.1_H4.1_A4.1_[T5G]_[A6T]_[T7G]_F4.1_[A9G]_T4.1] | 0.575 µM |
| UCUCUUUGUAGCACAUCUCUU (ssRNA) [Ic_S1_P4E.1_K4.1_C4.1_H4.1_A4.1_[T5G]_[A6C]_[T7A]_F4.1_[T8C]_T4.1] | 1.45 µM |
| UCUCUUUGUAGUCGCUCUCUU (ssRNA) [Ic_S1_P4E.1_K4.1_C4.1_H4.1_A4.1_[T5G]_[A6T]_[T7C]_F4.1_[T8G]_[A9C]_T4.1] | > 2.3 µM |
| UCUCUUUGUAGCAAAUCUCUU (ssRNA) [Ic_S1_P4E.1_K4.1_C4.1_H4.1_A4.1_[T5G]_[A6C]_[T7A]_F4.1_[T8A]_T4.1] | 0.833 µM |
